Biological target: 53BP1 fragment (a.a. 1221-1718) fused to an adenylate cyclase fragment (two-hybrid) (UniProt Q12888)
Assay: cell-based or functional assay

Substance | Experiment 1 Average Enrichment | Experiment 1 Rep 1 Enrichment | Experiment 1 Rep 2 Enrichment | Experiment 2 Average Enrichment | Experiment 2 Rep 1 Enrichment | Experiment 2 Rep 2 Enrichment
i53 + N25I two-hybrid fusion (designed binder) | 0.83 log2 | 0.85 log2 | 0.81 log2 | 0.4 log2 | 0.41 log2 | 0.39 log2
i53 + N25K two-hybrid fusion (designed binder) | 0.32 log2 | 0.11 log2 | 0.54 log2 | 0.21 log2 | 0.17 log2 | 0.24 log2
i53 + N25L two-hybrid fusion (designed binder) | 0.43 log2 | 0.47 log2 | 0.39 log2 | 0.23 log2 | 0.26 log2 | 0.19 log2
i53 + N25M two-hybrid fusion (designed binder) | 0.5 log2 | 0.5 log2 | 0.5 log2 | 0.45 log2 | 0.46 log2 | 0.43 log2
i53 + N25Q two-hybrid fusion (designed binder) | 0.72 log2 | 0.24 log2 | 1.21 log2 | 0.18 log2 | 0.15 log2 | 0.22 log2
i53 + N25R two-hybrid fusion (designed binder) | 0.31 log2 | 0.25 log2 | 0.36 log2 | 0.29 log2 | 0.25 log2 | 0.34 log2
i53 + N25S two-hybrid fusion (designed binder) | 0.26 log2 | 0.18 log2 | 0.34 log2 | 0.33 log2 | 0.27 log2 | 0.38 log2
i53 + N25T two-hybrid fusion (designed binder) | 0.12 log2 | -0.19 log2 | 0.44 log2 | 0.29 log2 | 0.33 log2 | 0.24 log2
i53 + N60E two-hybrid fusion (designed binder) | 0.66 log2 | 0.9 log2 | 0.43 log2 | 0.25 log2 | 0.13 log2 | 0.38 log2
i53 + N60Q two-hybrid fusion (designed binder) | 0.08 log2 | 0.13 log2 | 0.03 log2 | 0.29 log2 | 0.01 log2 | 0.58 log2
i53 + P19K two-hybrid fusion (designed binder) | 1 log2 | 2.12 log2 | -0.12 log2 | -0.68 log2 | -0.26 log2 | -1.1 log2
i53 + P38A two-hybrid fusion (designed binder) | 0.06 log2 | -0.41 log2 | 0.53 log2 | 0 log2 | -0.16 log2 | 0.15 log2
i53 + P38C two-hybrid fusion (designed binder) | 1.52 log2 | 1.21 log2 | 1.83 log2 | 0.52 log2 | 0.46 log2 | 0.57 log2
i53 + P38F two-hybrid fusion (designed binder) | 0.67 log2 | 0.91 log2 | 0.43 log2 | 0.81 log2 | 0.48 log2 | 1.13 log2
i53 + P38H two-hybrid fusion (designed binder) | 0.26 log2 | 0.87 log2 | -0.35 log2 | 0.58 log2 | 0.33 log2 | 0.83 log2
i53 + P38I two-hybrid fusion (designed binder) | 0.66 log2 | 0.4 log2 | 0.92 log2 | 0.64 log2 | 1.62 log2 | -0.34 log2
i53 + P38K two-hybrid fusion (designed binder) | -1.02 log2 | -2.14 log2 | 0.1 log2 | 0.25 log2 | -0.61 log2 | 1.11 log2
i53 + P38M two-hybrid fusion (designed binder) | -0.31 log2 | -2.07 log2 | 1.45 log2 | 1.25 log2 | 1.37 log2 | 1.13 log2

Substance | Experiment 1 Average Enrichment | Experiment 1 Rep 1 Enrichment | Experiment 1 Rep 2 Enrichment | Experiment 2 Average Enrichment | Experiment 2 Rep 1 Enrichment | Experiment 2 Rep 2 Enrichment
i53 + P38N two-hybrid fusion (designed binder) | 1.02 log2 | 2.28 log2 | -0.25 log2 | -1.49 log2 | -1.91 log2 | -1.07 log2
i53 + P38Q two-hybrid fusion (designed binder) | -0.25 log2 | 0.85 log2 | -1.35 log2 | 0.5 log2 | 1.18 log2 | -0.17 log2
i53 + P38S two-hybrid fusion (designed binder) | 0.22 log2 | 0.19 log2 | 0.25 log2 | 0.27 log2 | 0.56 log2 | -0.02 log2
i53 + P38T two-hybrid fusion (designed binder) | 0.11 log2 | 0.95 log2 | -0.72 log2 | 0.92 log2 | 1.27 log2 | 0.58 log2
i53 + P38V two-hybrid fusion (designed binder) | 1.21 log2 | 1.16 log2 | 1.26 log2 | 0.05 log2 | 0.38 log2 | -0.29 log2
i53 + P38W two-hybrid fusion (designed binder) | 0.6 log2 | 0.61 log2 | 0.6 log2 | -0.59 log2 | -0.87 log2 | -0.32 log2
i53 + P38Y two-hybrid fusion (designed binder) | 0.74 log2 | 1.79 log2 | -0.3 log2 | 0.31 log2 | 0.66 log2 | -0.03 log2
i53 + P69R two-hybrid fusion (designed binder) | -1.93 log2 | -2.27 log2 | -1.59 log2 | 0.75 log2 | 0.2 log2 | 1.29 log2
i53 + Q31H two-hybrid fusion (designed binder) | 0.19 log2 | 0.66 log2 | -0.29 log2 | 0.11 log2 | 0.13 log2 | 0.09 log2
i53 + Q31L two-hybrid fusion (designed binder) | 0.41 log2 | 0.71 log2 | 0.11 log2 | -0.15 log2 | -0.23 log2 | -0.06 log2
i53 + Q31M two-hybrid fusion (designed binder) | -1.74 log2 | -0.84 log2 | -2.63 log2 | 0.07 log2 | -0.05 log2 | 0.18 log2
i53 + Q31R two-hybrid fusion (designed binder) | 0.15 log2 | 0.66 log2 | -0.37 log2 | -0.22 log2 | 0.14 log2 | -0.58 log2
i53 + Q31Y two-hybrid fusion (designed binder) | 0.32 log2 | 0.31 log2 | 0.34 log2 | -0.05 log2 | -0.26 log2 | 0.16 log2
i53 + Q40D two-hybrid fusion (designed binder) | -0.31 log2 | 0.13 log2 | -0.75 log2 | 0.8 log2 | 1.27 log2 | 0.33 log2
i53 + Q40E two-hybrid fusion (designed binder) | 1.37 log2 | 1.67 log2 | 1.08 log2 | 1.18 log2 | 1.84 log2 | 0.52 log2
i53 + Q41C two-hybrid fusion (designed binder) | 0.18 log2 | 0.22 log2 | 0.13 log2 | -0.03 log2 | -0.05 log2 | 0 log2
i53 + Q41I two-hybrid fusion (designed binder) | 0.3 log2 | 0.3 log2 | 0.3 log2 | -0.08 log2 | 0.08 log2 | -0.25 log2
i53 + Q41V two-hybrid fusion (designed binder) | -0.14 log2 | -0.37 log2 | 0.1 log2 | 0.05 log2 | 0.13 log2 | -0.03 log2

— patent publication US20230135471A1, “UBIQUITIN VARIANTS WITH IMPROVED AFFINITY FOR 53BP1” (Integrated DNA Technologies, Inc., priority 2021, published 2023)
